Laboratory results as given in US20190031783A1 (AbbVie / Abbott, published 2019).
Several values for one entry are separate records, joined by “and”; a condition that tells them apart may be missing. Identical values can stand only once. Each block holds one binder with its values, some of them ahead of it.

Assays:
[1] = molecular target: T1, human DLL4, full-length, expressed on HEK293G cells (human, UniProt Q9NR61 27-685); experiment: cell-based or functional assay
[2] = molecular target: T2, purified recombinant human DLL4 extracellular domain (ECD) (human, UniProt Q9NR61 27-529); experiment: SPR (Biacore), DVD captured via anti-human Fc, DLL4 ECD injected, 25 C
T2 construct: extracellular domain; also called human DLL4529; huDLL4
Procedure: (§1) For DLL4 binding kinetic measurements the assay buffer was HBS-EPB: 10 mM Hepes, pH7.5, 150 mM NaCl, 3 mM EDTA, 0.005% Tween 20, 0.1 mg/ml BSA (Sigma A7906). For VEGF binding kinetic measurements the assay buffer was HBS-EP+(3N01B): 10 mM Hepes, pH7.5, 300 mM NaCl, 3 mM EDTA, 0.05% Tween 20, 0.1 mg/ml BSA (Sigma A7906). For example, approximately 9000 RU of goat anti-human Fc specific polyclonal antibody (Thermo Fisher Scientific Inc., Rockford, Ill.) diluted in 10 mM sodium acetate (pH 4.5) is directly immobilized across a CM5 research grade biosensor chip using a standard amine coupling kit according to manufacturer's instructions and procedures at 25 ug/ml. Unreacted moieties on the biosensor surface are blocked with ethanolamine. For kinetic analysis, rate equations derived from the 1:1 Langmuir binding model are fitted simultaneously to multiple antigen injections (using global fit analysis) with the use of Scrubber 2 (BioLogic Software), Biacore Biaevaluation 4.0.1 software or Biacore T100 Evaluation software. Purified antibodies are diluted in running buffer for capture across goat anti-human Fc reaction surfaces. Antibodies to be captured as a ligand (1 ug/ml) are injected over reaction matrices at a flow rate of 10 ul/min. During the assay, all measurements are referenced against the capture surface alone (i.e. with no captured antibody). […] The equilibrium dissociation constant KD (M) of the reaction between antibodies and the target antigen is then calculated from the kinetic rate constants by the following formula: KD=Koff/Kₒₙ. Binding is recorded as a function of time and kinetic rate constants are calculated.

[3] = molecular target: T3, full-length human DLL4 on HEK293G cells (human, UniProt Q9NR61 27-685); experiment: flow cytometry (FACS) on HEK293G cells overexpressing full-length DLL4
T3 construct: whole, on cells; also called HEK293G cells expressing human DLL4
Procedure: Stable HEK293G cell lines overexpressing full-length DLL4 were harvested from tissue culture flasks, washed four times and resuspended in phosphate buffered saline (PBS) containing 1% bovine serum albumin and 1 mM CaCl₂ (FACS buffer). 1.5×10⁵ cells were incubated with DVD binding proteins at various concentrations in FACS buffer for 60 minutes on ice. […] Following an incubation on ice (4° C., 60 minutes), cells were washed three times and resuspended in FACS buffer. Fluorescence was measured using a Becton Dickinson FACSCalibur-HTS (Becton Dickinson, San Jose, Calif.). Data was analyzed using Graphpad Prism software and EC₅₀ values were reported as the concentration of antibody to achieve 50% of maximal antibodies binding to DLL4 expressing cells.

[4] = molecular target: T3, full-length human DLL4 on HEK293G cells; experiment: cell-based or functional assay
[5] = molecular target: T1, human DLL4, full-length, expressed on …; experiment: cell-based or functional assay; remark: listed apart in the source
[6] = molecular target: T2, purified recombinant human DLL4 …; experiment: SPR (Biacore), antibody captured via anti-human Fc, DLL4 ECD injected, 25 C
Procedure: as §1

[7] = molecular target: T2, purified recombinant human DLL4 …; experiment: Notch competition ELISA: inhibition of biotin DLL4 ECD binding to coated human Notch-1
Procedure: Plates were then washed 3× with wash buffer (PBS, 0.05% Tween-20) and blocked with 200 μl/well blocking buffer (D-PBS, 1% BSA, 1 mM CaCl₂, 0.05% Tween-20) for 1 hour at 25° C. […] Assay plates were washed after blocking, and incubated with DLL4/antibody mixtures (100 μl/well, 1 hour at 25° C. with shaking). Plates were washed again and 100 μl/well of streptavidin conjugated with HRP (Fitzgerald #65R-S104PHRPx, diluted 1:5,000 in blocking buffer) was added for 1 hour at 25° C. with shaking. After a final wash, plates were developed using 100 μl/well substrate (TMB Sigma #T8665), and the reaction was stopped using 100 μl/well 1N HCl, and the absorbance was read at 450 nm. Data was analyzed using Graphpad Prism software and IC₅₀ values were reported as the concentration of antibody required to achieve 50% reduction of DLL4 binding to Notch1.

IC50 (nM), DLL4 neutralization cellular assay, 0 nM VEGF [1]: > 40 nM
IC50 (nM), DLL4 neutralization cellular assay, 150 nM BSG2 present [1]: > 40 nM
IC50 (nM), DLL4 neutralization cellular assay, 150 nM VEGF present [1]: 4.56 nM
B1: h1A11.1-SL-Av Fab (Fab)
chain 1: EVQLVESGGGLVQPGGSLRLSCAASGFTFSNFPMAWVRQAPGKGLEWVATISSSDGTTYYRDSVKGRFTISRDNAKNSLYLQMNSLRAEDTAVYYCARGYYNSPFAYWGQGTLVTVSSASTKGPEVQLVESGGGLVQPGGSLRLSCAASGYTFTNYGMNWVRQAPGKGLEWVGWINTYTGEPTYAADFKRRFTFSLDTSKSTAYLQMNSLRAEDTAVYYCAKYPHYYGSSHWYFDVWGQGTLVTVSS
chain 2: not shown

Kd [2]: 12 nM
EC50 [3]: 3.75 nM
Notch Activation IC50 [4]: 7.47 nM
B2: h1A11.1-SS-Av (bispecific antibody, human IgG1)
VH: B1 chain 1
VL: DIQMTQSPSSLSASVGDRVTITCRASEDIYSNLAWYQQKPGKAPKLLIYDTNNLADGVPSRFSGSGSGTDFTLTISSLQPEDFATYYCQQYNNYPPTFGQGTKLEIKRTVAAPDIQMTQSPSSLSASVGDRVTITCSASQDISNYLNWYQQKPGKAPKVLIYFTSSLHSGVPSRFSGSGSGTDFTLTISSLQPEDFATYYCQQYSTVPWTFGQGTKVEIKR
notes: DVD-Ig; also called h1A11.1-SS-Av DVD

IC50 (nM), DLL4-Notch reporter assay, h1A11.1 + Av mixture, 0 nM VEGF [5]: 8.64 nM and 9.17 nM
IC50 (nM), DLL4-Notch reporter assay, h1A11.1 + Av mixture, 6 nM BSG2 (negative control protein) present [5]: 9.55 nM
IC50 (nM), DLL4-Notch reporter assay, h1A11.1 + Av mixture, 6 nM VEGF present [5]: 9.97 nM
IC50 (nM), DLL4-Notch reporter assay, h1A11.1 + Av mixture, 150 nM BSG2 (negative control protein) present [5]: 10.9 nM
IC50 (nM), DLL4-Notch reporter assay, h1A11.1 + Av mixture, 150 nM VEGF present [5]: 10.3 nM
B3: h1A11.1 humanized anti-DLL4 mAb (antibody, V domains shown)
VH: EVQLVESGGGLVQPGGSLRLSCAASGFTFSNFPMAWVRQAPGKGLEWVATISSSDGTTYYRDSVKGRFTISRDNAKNSLYLQMNSLRAEDTAVYYCARGYYNSPFAYWGQGTLVTVSS
VL: DIQMTQSPSSLSASVGDRVTITCRASEDIYSNLAWYQQKPGKAPKLLIYDTNNLADGVPSRFSGSGSGTDFTLTISSLQPEDFATYYCQQYNNYPPTFGQGTKLEIKR

Kd [6]: 12 nM
koff [6]: 0.00193 s⁻¹
kon [6]: 160000 M⁻¹ s⁻¹
B4: humanized anti-DLL4 mAb (h1A11.1) (antibody, V domains shown)
VH: B3 VH
VL: B3 VL
notes: Parental humanized anti-DLL4 mAb

IC50 [7]: 0.79 nM
EC50 [3]: 5.04 nM
Notch Activation IC50 [4]: 4.56 nM
B5: h1A11.1-LL-Av (bispecific antibody, human IgG1)
VH: EVQLVESGGGLVQPGGSLRLSCAASGFTFSNFPMAWVRQAPGKGLEWVATISSSDGTTYYRDSVKGRFTISRDNAKNSLYLQMNSLRAEDTAVYYCARGYYNSPFAYWGQGTLVTVSSASTKGPSVFPLAPEVQLVESGGGLVQPGGSLRLSCAASGYTFTNYGMNWVRQAPGKGLEWVGWINTYTGEPTYAADFKRRFTFSLDTSKSTAYLQMNSLRAEDTAVYYCAKYPHYYGSSHWYFDVWGQGTLVTVSS
VL: DIQMTQSPSSLSASVGDRVTITCRASEDIYSNLAWYQQKPGKAPKLLIYDTNNLADGVPSRFSGSGSGTDFTLTISSLQPEDFATYYCQQYNNYPPTFGQGTKLEIKRTVAAPSVFIFPPDIQMTQSPSSLSASVGDRVTITCSASQDISNYLNWYQQKPGKAPKVLIYFTSSLHSGVPSRFSGSGSGTDFTLTISSLQPEDFATYYCQQYSTVPWTFGQGTKVEIKR
notes: DVD-Ig; also called h1A11.1-LL-Av DVD

IC50 [7]: 0.76 nM
Kd [2]: 11 nM
EC50 [3]: 5 nM
Notch Activation IC50 [4]: 4.59 nM
B6: h1A11.1-LS-Av (bispecific antibody, human IgG1)
VH: B5 VH
VL: B2 VL
notes: DVD-Ig; also called h1A11.1-LS-Av DVD
